The supplement of paper PMC12042874
± gives the uncertainty stated by the source.

Experiment: amyloid nucleation score (Sup35N fusion, yeast selection) (log enrichment); library NNK1; higher = more nucleation; inactive = no reads after selection
Outline: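 Psi-negative yeast expressed Sup35N fused to peptides of 20 random codons. They were induced 24 hours with 100 μM copper sulfate, grown 7 days at 30°C without adenine and uracil, and their plasmid inserts from input and output were Illumina-sequenced. The nucleation score is the DiMSum log enrichment of output over input reads, centred on the mode score of non-aggregating sequences. Sequences with under 100 input reads were excluded.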

Substance	amyloid nucleation score
LFPSTTMLLFRLNQGGFDEI	0.407 ± 0.58
LFRFDYCLPGRFNRFWPDIS	1.03 ± 0.18
LFRLYTEITGRMRVTKVKVV	0.641 ± 0.69
LFRSSKSIRSLLSFCSICMF	5.33 ± 0.076
LFRYTVRQGWFKRETHWVPM	0.296 ± 0.53
LFSSLRRGRHSLPIPLPMNL	0.013 ± 0.36
LFTFIGAVCFILNIACSLFF	1.05 ± 0.58
LFTVKKVFQLLYL	0.936 ± 0.7
LFVDPL	1.06 ± 0.88
LFVFPVESCMCMQLRVAQSK	0.642 ± 0.62
LFWCVSVNRDIKIQCDRTLF	1.13 ± 0.51
LFWLKKNILLDRIHLP	-0.172 ± 0.4
LFYFTRLFINRYMNM	-0.316 ± 0.5
LGCVVHDCYKVVDGIMSYML	1.69 ± 0.41
LGECFTGTDRLLEGLVSCES	0.776 ± 0.88
LGFSVCSRLVFIWEYASFGK	0.459 ± 0.46
LGFTRIGPGALTAKA	-0.72 ± 1.2
LGFVRLGGSCHITIDSGACV	-0.386 ± 1
LGGAWLSNEDMVGYKNLH	1.44 ± 0.41
LGHAKRGDWSWLKFSCDSGE	-0.167 ± 0.48
LGIAGER	0.294 ± 0.33
LGIARDSWGKIKQFSAVDSC	0.159 ± 0.26
LGLDTEVVGPGPGGYHLWQK	0.112 ± 0.27
LGLPSVFRRHFAFMVRMLWY	0.021 ± 0.75
LGNMHREDYGSSGSRARFKG	-0.612 ± 0.74

Substance	amyloid nucleation score
LGPLYQFDICGKGTGYGDHE	-0.673 ± 0.71
LGRFYTTCT	-0.981 ± 1.1
LGRIDRWKDQWCSLAELKS	-0.383 ± 1.7
LGRLAVDHLVCRRYDSSLHN	0.089 ± 1.1
LGSEAS	0.093 ± 0.2
LGTGCA	-0.507 ± 0.83
LGVRINGTNVLDFF	0.044 ± 0.27
LGWNKSTAYELCFTPSSGGY	2.11 ± 0.15
LGWSGMVGFG	0.08 ± 0.81
LGYAYSEPPWRLMVNWSPSA	1.66 ± 0.16
LHCFMWFFHIDN	7.456 ± 0.057
LHRITYLCSNVYSVCGLVCA	4.35 ± 0.079
LHSWSVAILIHYKMRD	-0.084 ± 0.27
LHWWRFFVEVTLPCLGFLLS	-0.308 ± 0.76
LIAVQWASMRQAWNIC	0.616 ± 1.2
LIFLDMAVL	-0.403 ± 1.4
LIFQVSQSIGTYSCTKSEGR	0.756 ± 0.2
LIHLMRRNAAKTPGAQRDN	0.947 ± 0.7
LIKSMDFLGRM	0.117 ± 0.69
LIMILGIRDHLTNCGGKVLQ	2.03 ± 0.3
LIMNFGGRLRVAGFGVLVMD	2.09 ± 0.15
LIRLMSQ	1.83 ± 0.24
LISGVS	inactive
LISVCRFLAIILFRTFA	0.365 ± 0.69
LITLAFVVSCVSYSRGSKRR	1.26 ± 0.17

Substance	amyloid nucleation score
LIYRVPIDLITNSNSALRCA	-0.018 ± 0.48
LKCLLKHGFTRNG	-2.08 ± 2.7
LKDRGYQKYFNSGLIGCNAS	-0.096 ± 0.47
LKEFISCGPGCINWLHGKDW	-0.519 ± 0.37
LKFMSPSLSTIDRDIK	0.156 ± 0.27
LKFSVFVKASPCTIRRS	-0.218 ± 0.5
LKGRYDIKNY	inactive
LKICLIGTNCMSNV	-0.234 ± 0.78
LKLLINGY	-0.333 ± 0.59
LKPLRKFRSNVNMR	inactive
LKSIPNCFRHFYVNTFS	-0.923 ± 0.49
LKSTEWSGRGFQ	0.862 ± 0.19
LKSWVLYYFM	1.03 ± 0.35
LKSYSTFVIRMNWLGDEGEL	-0.874 ± 0.8
LLALRPASNKWNAYQTLTEP	-0.462 ± 0.57
LLCARCRMSVSEFPNPGVSY	inactive
LLCLCESRVARYTWACHSWY	-0.366 ± 0.3
LLCLLYHAGGTKRGYTTWAS	-0.133 ± 1.2
LLFIAG	0.386 ± 0.66
LLGDKLV	-0.096 ± 0.46
LLGVGCNRIDWLNGAKN	2.04 ± 0.49
LLGVLWFKVSCGARAQLGIW	-0.197 ± 1.9
LLGYPSRLRPRYDFLPPGGM	0.014 ± 0.99
LLHHYGGYELVSDWTIAKF	0.364 ± 0.31
LLLGYVKSSLPIVGYSRMEG	0.548 ± 0.35

Substance	amyloid nucleation score
LLLLCMDARRKRYSSMSACS	1.02 ± 0.53
LLQAQHSF	0.208 ± 0.21
LLQVWYFFR	0.296 ± 0.66
LLRVLFFCFSMRCRVGISVA	0.86 ± 0.69
LLSIKSKSVFLASYCNILST	2.71 ± 0.17
LLSLNEMYMTLMGGTVPRVG	-0.076 ± 0.56
LLTMFLFNGSKYFLH	2.3 ± 0.2
LLVGKMCRWNMSYVG	-0.063 ± 0.28
LLVLMYNCFAIYKNWIF	0.209 ± 1.2
LLVSFTENNRPDLILQSHLM	-1.2 ± 1.2
LLVSTVRVNGQI	-0.016 ± 0.42
LLWDCVNLEGIEQFYCPHSD	0.382 ± 0.44
LLYIRVADSRPGDLRWLSEV	-0.106 ± 0.5
LLYYASVLRMKGTECPDGGD	-0.856 ± 2.4
LMGMRPFELHRRRGHGHVLG	-0.019 ± 0.64
LMGSRAGSLTQLIESNTKER	-0.748 ± 1.1
LMHASHFFVGKMFLL	0.266 ± 0.28
LMKYWYDVHRNESGITSNNI	-1.26 ± 0.42
LMLGKLWFPGMCYESKWELG	-0.181 ± 1
LMLTGRD	-0.462 ± 1.2
LMPLLS	0.025 ± 0.36
LMQVVGTVGGRQCTVGWFGV	-0.523 ± 0.66
LMWDIWVSYGGAKMSDWSKG	-0.225 ± 0.31
LMWVNLTSVFVRMD	0.14 ± 0.31
LMWWGMNDSR	-0.025 ± 0.28

Substance	amyloid nucleation score
LNFWGACLIHYSWQNTIVLV	2.28 ± 0.16
LNLTCDHSPSYLLIFFLMSI	0.719 ± 0.2
LNNSGVTTICLAGRVTFCTD	6.55 ± 0.075
LNRRLGDVEPIYAGLTSQQS	0.313 ± 0.3
LNRVEYS	6.843 ± 0.068
LNSAVDMGCFVVNLYMLCIY	4.22 ± 0.059
LNTAQI	0.512 ± 0.29
LNTFTVLMLWMLLQNVAFIL	-1.37 ± 2.1
LNVIQPSWDRNFHFEVRFGH	7.942 ± 0.061
LNVRGITIKLCHFRRIWYAQ	-1.25 ± 0.83
LNYDLWTKILNDVVVVCNRF	-0.185 ± 0.4
LPCLSMKVLDTNYNLPCSKN	-0.458 ± 0.32
LPEEDG	inactive
LPKLICIKRASLFNPFLDLM	0.056 ± 0.24
LPNSMLSSGLGWSSINFF	1.16 ± 0.7
LPYTHFGDDLIGITQDGLRV	-0.035 ± 0.43
LQASLGNDPSSVRVSSRGNW	-0.468 ± 0.54
LQCSCLTVWLQNRPDQLSPS	0.1 ± 0.73
LQNIFLKACDWLGCWDVDVM	-0.149 ± 0.93
LQPLLISIKRRFLHYVSQNM	-0.073 ± 0.66
LQQMIRRLVLRFMAATAL	0.14 ± 0.37
LQWEVSSLNVLRFPRNMERC	0.289 ± 0.4
LRAPGTMVDRRCRGVWK	0.356 ± 0.85
LRCTCVECQWKRCESTLGGG	-1.02 ± 2.7
LRDDRFLMKLHYKKQDSSCV	0.324 ± 0.53

Substance	amyloid nucleation score
LREFPFYFTISLRITLFMSL	-0.391 ± 0.23
LRFHEGVLGAMFEGSVCVLE	-0.01 ± 1.5
LRGFRFVAIMLSVYRKVKVD	-0.531 ± 0.34
LRITYMSLVEYG	1.35 ± 0.69
LRLLFLNNSATCLVTHVGNQ	1.38 ± 0.74
LRNHASVPV	0.084 ± 0.4
LRRVRMEWSVVMHGQSENPE	1.2 ± 0.35
LRSSVDLTRGESYNSGKFFN	0.435 ± 0.32
LRTMIVLGFSTWDTCIGSES	-0.537 ± 0.28
LRTRDQSGFSAVIYSKNPRA	0.106 ± 0.51
LRTWDSIFYDLMGACGRPWV	-0.521 ± 0.54
LRVCNLFCL	7.912 ± 0.046
LRVHDHDRMSDKMRYCNPFC	1.76 ± 0.42
LRVSYWQDLAVLYLDSPLGL	-0.358 ± 0.87
LRVYHSYFFSWSSTSLLPAG	0.219 ± 0.76
LRYDVPRWLGFSEWHF	-0.833 ± 1
LRYSIISLAANSKTADG	0.663 ± 0.7
LSAFNWQGDVNLRECYNVY	-0.337 ± 0.63
LSAVPSNGHNNGGYVKSDVS	-0.766 ± 1.4
LSCLRSYVTMHMGIIGYLFN	0.218 ± 0.27
LSDRIAYVVRGC	0.137 ± 0.43
LSFSMGYNYELATTKWSVVF	1.3 ± 0.41
LSGCEGVPLNLMYLDSKMSR	-0.106 ± 0.74
LSHSEDVSQETTIYPNLSCN	-0.533 ± 0.68
LSIEQTLQEAGILDYPSRIT	-0.155 ± 0.35

Substance	amyloid nucleation score
LSIMVCVICSYMVKMVVTGI	inactive
LSIRNTSTSRITTLFLGL	1.88 ± 0.4
LSKISTVK	-0.778 ± 0.64
LSLSMPYSGVLSELYAIATF	-0.384 ± 0.27
LSMKSHFWKMMFTGNWSYVC	inactive
LSPLDIPTRDLPIFLTFKDT	inactive
LSQFD	1.17 ± 0.41
LSRVKSR	1.29 ± 0.62
LSSTDFLGSDVDCFGNCNFL	3.48 ± 0.13
LSSYSTYPCSLTGVRKLNCR	-0.205 ± 0.56
LSTKRYDLHSTPRRPISPSR	1.08 ± 0.41
LSTTKAIALSYLYGQNVKWS	0.092 ± 0.21
LSVGLKVDDEDQRLTYFVTI	-0.614 ± 0.62
LSWIR	-0.09 ± 0.66
LSWSILDGFGGMRCCNINAL	7.155 ± 0.058
LSWVMRYLPYVVFLSYDQPG	-0.723 ± 0.62
LSYLLWGETRIRYWVPASLM	-0.32 ± 0.61
LTEDLNMPSWCKP	0.087 ± 0.7
LTGGLMV	-0.06 ± 0.34
LTMPMKHLRGSPDLRVNGII	-0.502 ± 0.85
LTNNVYSYVWILSSARISIV	0.87 ± 0.22
